Test results taken from publication PMC7710607.

Target: ACSL1 (UniProt P41216)
Test: GST-TBK1 binding to bead-bound flag-ACSL1
Details: reference: ΔC (1-657) wild type; sites S172

“mouse TBK1 (mTBK1, GST-TBK1) C-terminal truncated, 1-657 (from UniProt Q9WUN2) ΔC (1-657) S172A” was tested. Which “binding against the reference” value did it give?
Its value is “stronger”.
